One assay has as its system N-cadherin. Briefly: In vitro γ-secretase-like ε-cleavage assay, membranes of WT-PS1-transfected HEK293 cells. The assay is classed as biochemical, human. Conditions: membranes from WT-PS1-transfected clone #7, presence of L-685,458, 37° C. 2 hours. How it is done:
In vitro γ-secretase-like ε-cleavage assay. Cells were washed in PBS, resuspended in 1 ml of 4° C. hypotonic buffer (10 mM MOPS, pH 7.0, 10 mM KCl) and homogenized on ice. A post-nuclear supernatant was prepared by centrifugation at 1000×g for 15 minutes at 4° C. Crude membranes were isolated from the post-nuclear supernatant by centrifugation at 16,000×g for 40 minutes at 4° C. The membranes were then resuspended in […] of assay buffer (150 mM sodium citrate, pH 6.4, 1× Complete protease inhibitor cocktail), and incubated at 37° C. for 2 hours. Samples were either analyzed directly by WB or separated into pellet (P100) and supernatant (S100) fractions by ultracentrifugation for 1 hour at 100,000×g at 4° C. The S100 and P100 fractions were then analyzed by WB.
Membranes from PS1−/− (FIG. 7C, lane 1) or PS1+/+ (FIG. 7C, lanes 2-4) fibroblasts or from N2a cell cultures (FIG. 7C, lanes 5-6) incubated for 16 hours in the absence or presence of DMSO or L-685,458 ([…]), were incubated at 37° C. for 2 hours, separated by centrifugation in a pellet (P100, FIG. 7C, upper panels) and a soluble (S100, FIG. 7C, lower panels) fractions and then probed on WBs with C32 antibody. […]

For another assay, the target named is T1, CBP (Mus musculus, UniProt P45481).
T1 construct: a process that relies on endogenous CBP and CREB; endogenous in cells; host or cells: L cells transfected with vector or pN-Cad/CTF2
T1 sequence (P45481 whole entry): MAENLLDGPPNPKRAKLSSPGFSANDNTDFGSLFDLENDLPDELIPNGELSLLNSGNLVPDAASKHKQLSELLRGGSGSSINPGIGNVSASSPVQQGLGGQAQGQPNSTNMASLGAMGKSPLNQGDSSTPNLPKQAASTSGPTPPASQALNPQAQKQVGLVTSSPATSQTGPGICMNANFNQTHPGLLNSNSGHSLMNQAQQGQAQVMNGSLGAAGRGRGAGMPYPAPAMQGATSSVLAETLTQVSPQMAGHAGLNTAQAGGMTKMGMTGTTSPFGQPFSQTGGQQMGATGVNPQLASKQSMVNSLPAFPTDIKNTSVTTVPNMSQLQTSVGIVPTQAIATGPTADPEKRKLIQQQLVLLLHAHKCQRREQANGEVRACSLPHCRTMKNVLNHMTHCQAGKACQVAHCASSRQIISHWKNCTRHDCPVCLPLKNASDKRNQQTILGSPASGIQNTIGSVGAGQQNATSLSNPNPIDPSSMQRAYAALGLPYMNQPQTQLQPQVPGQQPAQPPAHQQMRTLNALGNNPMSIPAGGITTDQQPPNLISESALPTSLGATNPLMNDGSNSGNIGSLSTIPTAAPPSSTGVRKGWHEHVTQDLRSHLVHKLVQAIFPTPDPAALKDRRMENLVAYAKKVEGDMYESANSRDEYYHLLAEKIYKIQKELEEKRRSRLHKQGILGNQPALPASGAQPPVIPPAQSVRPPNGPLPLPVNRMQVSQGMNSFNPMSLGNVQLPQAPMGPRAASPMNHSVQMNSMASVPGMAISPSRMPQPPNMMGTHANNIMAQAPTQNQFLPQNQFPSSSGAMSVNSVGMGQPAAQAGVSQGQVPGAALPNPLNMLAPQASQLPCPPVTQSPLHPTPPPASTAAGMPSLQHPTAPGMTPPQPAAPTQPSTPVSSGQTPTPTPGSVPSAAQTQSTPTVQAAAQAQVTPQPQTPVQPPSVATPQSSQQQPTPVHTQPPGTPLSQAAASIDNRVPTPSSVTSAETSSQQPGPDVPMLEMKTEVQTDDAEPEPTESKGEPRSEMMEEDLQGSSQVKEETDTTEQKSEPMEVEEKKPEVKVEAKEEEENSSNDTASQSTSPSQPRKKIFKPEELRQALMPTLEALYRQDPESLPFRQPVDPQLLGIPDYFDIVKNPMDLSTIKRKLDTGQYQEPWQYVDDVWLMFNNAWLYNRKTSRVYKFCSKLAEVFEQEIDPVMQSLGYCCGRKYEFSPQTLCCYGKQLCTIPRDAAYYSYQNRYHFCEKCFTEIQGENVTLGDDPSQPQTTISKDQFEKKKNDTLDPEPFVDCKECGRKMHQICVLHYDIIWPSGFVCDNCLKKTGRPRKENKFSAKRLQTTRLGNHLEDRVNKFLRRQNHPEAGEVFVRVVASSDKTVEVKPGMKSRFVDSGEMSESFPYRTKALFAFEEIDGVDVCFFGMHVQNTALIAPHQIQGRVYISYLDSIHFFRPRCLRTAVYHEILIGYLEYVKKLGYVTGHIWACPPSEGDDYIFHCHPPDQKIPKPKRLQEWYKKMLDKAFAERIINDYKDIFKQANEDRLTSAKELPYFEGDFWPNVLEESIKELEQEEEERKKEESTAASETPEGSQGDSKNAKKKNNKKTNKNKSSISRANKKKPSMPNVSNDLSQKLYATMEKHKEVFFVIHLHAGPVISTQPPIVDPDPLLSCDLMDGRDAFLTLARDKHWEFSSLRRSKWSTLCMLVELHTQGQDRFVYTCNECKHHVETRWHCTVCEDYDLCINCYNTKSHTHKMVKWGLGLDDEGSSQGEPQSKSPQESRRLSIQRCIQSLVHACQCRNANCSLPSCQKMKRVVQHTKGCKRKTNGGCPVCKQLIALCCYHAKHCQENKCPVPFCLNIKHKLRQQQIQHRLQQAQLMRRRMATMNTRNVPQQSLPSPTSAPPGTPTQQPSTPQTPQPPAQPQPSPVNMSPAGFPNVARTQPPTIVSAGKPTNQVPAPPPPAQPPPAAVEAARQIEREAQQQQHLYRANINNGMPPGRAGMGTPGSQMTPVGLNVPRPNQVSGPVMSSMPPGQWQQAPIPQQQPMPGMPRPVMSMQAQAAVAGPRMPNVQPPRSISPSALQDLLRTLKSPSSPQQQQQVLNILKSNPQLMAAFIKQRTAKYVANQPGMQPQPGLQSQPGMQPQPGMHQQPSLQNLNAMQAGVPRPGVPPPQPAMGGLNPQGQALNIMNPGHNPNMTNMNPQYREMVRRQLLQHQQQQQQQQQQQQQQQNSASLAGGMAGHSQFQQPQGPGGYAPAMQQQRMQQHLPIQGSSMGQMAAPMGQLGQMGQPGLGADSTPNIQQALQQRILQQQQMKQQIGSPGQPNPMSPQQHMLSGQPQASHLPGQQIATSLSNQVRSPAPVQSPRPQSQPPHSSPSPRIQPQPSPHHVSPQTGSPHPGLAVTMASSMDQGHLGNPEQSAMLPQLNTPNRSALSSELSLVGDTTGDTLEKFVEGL
Briefly: Nuclear/cytosolic fractionation of transfected L cells (Western blot). The assay is classed as cell-based. How it is done:
Subcellular fractionation. Transfected cells were washed in PBS, placed into 1 ml of buffer A (20 mM Tris-HCl, pH 7.5, 0.25 M sucrose, 10 mM EGTA, 2 mM EDTA, Ix Complete protease inhibitor cocktail), and then passed through a 27 gauge needle 10 times. Obtained lysates were centrifuged at 500×g for 10 minutes and pellets (nuclear fraction) were washed twice with 1 ml of buffer A containing 0.1% Triton X-100 and solubilized by sonication in RIPA buffer. Supernatants were centrifuged at 120,000×g for 45 minutes at 4° C. to separate cytosolic and crude membrane fractions. A 50 μg protein aliquot from the nuclear and cytosolic fractions was analyzed on WBs.
To determine how N-Cad/CTF2 affects CREB-mediated transcription, the following experiments were performed. L cells transfected either with vector (vector) or pN-Cad/CTF2 (N-Cad/CTF2) plasmids were fractionated into nuclear and cytosolic fractions, and probed on WBs with anti-CBP (FIG. 11A, panel a), anti-N-cadherin (FIG. 11A, panel b), anti-β-tubulin (FIG. 11A, panel c) or anti-phosphorylated CREB (P-CREB; FIG. 11A, panel d) antibodies. Extract from pN-Cad/CTF2-transfected L cells was immunoprecipitated either with non-immune serum (NI) or with antibodies against CBP (CBP), β-tubulin (β-Tub), E-cadherin (C36) or N-cadherin (C32). Obtained IPs were probed with anti-CBP (FIG. 11B, upper panel), anti-N-cadherin (FIG. 11B, middle panel) or anti-β-tubulin (FIG. 11B, lower panel) antibodies. For reference, cell lysate was also probed (FIG. 11B, first lane). L cells transiently transfected with pN-Cad/CTF2 were analyzed by immunofluorescence staining. Cells were triple-labeled with DAPI (blue), anti-CBP (red) and anti-N-cadherin (C32; green) antibodies. Nuclear extract from pN-Cad/CTF2-transfected L cells were incubated with biotinylated double-stranded DNA probes containing binding sequence for either CREB (FIG. 11C, left panel) or MEF-1 (FIG. 11C, right panel). […]

For another assay, the system named is MEF-1. Briefly: Electrophoretic mobility shift assay, MEF-1 probe. The assay is classed as biochemical. Particulars: FIG. 11C lanes 12-14. How it is done:
Electrophoresis mobility shift assay (EMSA). Nuclear extract from CBP-transfected L cells were prepared using the extraction kit N-XTRACT (Sigma) according to manufacturer's instructions. Ten microgram of nuclear extract was used for EMSA performed according to manufacturer's instructions using biotinylated double-stranded oligonucleotide probes containing DNA-binding motifs for CREB or MEF-1 (Panomics). Probes are as follow: CREB, 5′-[…]-3′ (SEQ ID NO: 17); MEF-1,5′-[…]-3′ (SEQ ID NO: 18). Reaction products were separated on 6% polyacrylamide gels in cold TBE buffer (50 mM Tris-HCl, 45 mM Boric acid, 0.5 mM EDTA), transferred to nylon membranes (Immobilon-Ny+, Millipore) and bound probes were immobilized for 30 minutes at 85° C. and visualized by chemiluminescence using streptavidin-HRP conjugate. For antibody supershift analysis, nuclear extract was incubated for 3 hours at 4° C. with […] of 1 B6 antibody prior to probe addition. Where indicated, nuclear extract ([…]) was immunoprecipitated with A-22 antibody ([…]) and protein A-agarose in EBC buffer (50 mM Tris, pH 8, 120 mM NaCl, 0.5% NP40, 1× Complete protease inhibitor cocktail).
A general note: In EMSA bound probe runs differently from free probe, usually more slowly.

This note sets out measurements from US7884067B2, “Peptides derived from cadherin and methods of use thereof” (Mount Sinai School of Medicine of New York University, priority 2001, dated 2011).

Turning to `CC(C)C[C@H](NC(=O)[C@H](Cc1ccccc1)C[C@@H](O)[C@H](Cc1ccccc1)NC(=O)OC(C)(C)C)C(=O)N[C@@H](Cc1ccccc1)C(N)=O` [L-685,458], the N-Cad/CTF2 production entry with N-cadherin is “no N-Cad/CTF2 was detected”.

B1: N-Cad/CTF2: chicken cytoplasmic domain of N-cadherin (N-Cad/CTF2) inserted into vector pECE, expressed in L cells (protein)
chain: KRRDKERQAKQLLIDPEDDVRDNILKYDEEGGGEEDQDYDLSQLQQPDTVEPDAIKPVGIRRLDERPIHAEPQYPVRSAAPHPGDIGDFINEGLKAADNDPTAPPYDSLLVFDYEGSGSTAGSLSSLNSSSSGGEQDYDYLNDWGPRFKKLADMYGGGDD
As to B1, the “change of CREB phosphorylation” value in the assay with CBP (N-Cad/CTF2 overexpression, FIG. 11A panel d) is “not detected”. Also, the “localization of phosphorylated CREB” value in the assay with CBP (transfection with N-Cad/CTF2, FIG. 11A panel d) is reported as “no effects”. Moreover, the “nuclear and cytosolic CBP” value with CBP (transfection with N-Cad/CTF2 vs vector, FIG. 11A) is “nuclear CBP decreased with a concomitant increase in cytosolic CBP”. The “complex formation between MEF-1 and DNA probe containing MEF-1-binding elements” value in the assay with MEF-1 is listed as “no effect”.
